Laboratory results: patent KR20230163144A
Each block holds one binder with its values, some of them ahead of it.

Biological target: IGSF1 항원 (IGSF1 카복시 말단 도메인의 세포외 도메인 - 인간 Fc - his tag 융합 단백질) (human) (UniProt Q8N6C5)
Assay: ELISA; human IGSF1 antigen diluted 1/3 from 100 nM to 0.046 nM; fit in GraphPad Prism 6

Kd: 27.2 nM
B1: WM-A1-3128 (antibody, V domains shown)
VH: QVQLVESGGGVVQPGKSLRLSCAASGFSLRTYGMHWVRQAPGKGLEWVANIWHDGSHTFYADSVQGRFTVSRDNSANLLFLQMNSLRAEDTAVYYCARGGSYSRYSDAFDIWGQGTVITVSS
VL: DIQMTQSPGTLSLSPGERATLSCRASQSVSSSYLAWYQQKPGQAPRLLIYDASNRATGIPARFSGTGSGTDFTLTISSLEPEDFAVYYCQQRSNWPLTFGGGTKVEIK

Kd: 20.8 nM
B5: WM-A1-3106 (antibody, V domains shown)
VH: QVQLVESGGGVVPPGGSVRLSCAASGFTFGDYAMHWVRQAPGKGLEWVSLISGDGGTTYYGDSVKGRYTISRDNSKNSLYLQMNSLRAEDTAVYYCARGGRVYGMDVWGQGTTVTVSS
VL: DIQMTQSPSSLSASVGNRVTITCRASQGISVWLAWFQQKPETAPKSLIYGSSNLQSGVPSRFSGSGSGTDFTLTINNLQPEDFATYYCQQYKASPPTFGGGTKVDIK

Kd: 300 nM
B7: WM-A1-3133 (antibody, V domains shown)
VH: QMQLVQSGGKLVQPGSSLRLSCAASGFSFDDYGMSWVRQAPGKGLEWVSAISGSGGSTYYADSVKGRFTISRDNSKNTLYLQMNSLRAEDTAVYYCARGGRVYGMDVWGQGTTVTVSS
VL: DIQMTQSPSSVSASVGDTVTITCRASHDIRRWLAWYQQKPGEVPKVLIYAAAVLHSGVPSRFSGSGSGTDFSLTITNLQPEDVATYYCQKYDSVPFTFGGGTKLEIK

The next lines start with the binder.

B2: WM-A1-3102 (antibody, V domains shown)
VH: QMQLVQSGAEVKKPGSSVKVSCKASGGTFSSYAISWVRQAPGQGLEWMGGIIPVLGATNYAQRFQGRVTMTADESTTTAYMELSGLRSEDTAVYYCARGRSWGFDYWGHGTLITVSS
VL: DIVMTQTPLSLPVTPGQPASISCKSSQSLLHSDGNTYLDWYLQKPGQSPQLLIYTLSHRASGVPDRFSGSGSGTDFTLKISRVEADDVGLYYCMQRIEFPYTFGQGTKVEIK
Kd: 18.8 nM

B3: WM-A1-3105 (antibody, V domains shown)
VH: QMQLVQSGAEVKRPGSSVKVSCKASGRSTYNYAFYWVRQAPGHGLEWMGGIIPIFGATNYAQKFQGRVTITADESTNTAYMEVTNLRSEDTAVYYCAKGSGNYYYGMDVWGQGTTVTVSS
VL: DIQMTQSPSSVSASVGDRVTITCRASQSVGTWLAWYQQKPGRAPKLLISAASSLHPGVPSRFSGSGSGTDFTLTISSLQPEDFATYYCQQADSFPYTFGQGTKLEIK
Kd: 29.5 nM

B4: WM-A1-2613 (antibody, V domains shown)
VH: QVQLQESGPGLVKPSGTLSLTCAVSGDSVISTDWWSWVRQPPGKELEWIGEIHHSGSTNYNPSLEGRVTISVDKSKNQFSLKLTSVTAVDTAVYYCSRGSGGRDAFDVWGQGTMITVSS
VL: QSALTQPPSSSGTPGQKVTISCSGSMSNIGGNYVSWYQQVPGTAPKLLIFKTNQGAAGVPDRFVGSKSGTSASLVISGLRPEDEATYYCASWDDIGDGPTWVFGGGTKLTVL
Kd: 0.1 nM

B6: WM-A1-2608 (antibody, V domains shown)
VH: QVQLVQSGGGLVQPGGSLRLSCEASGFAFRRYEMNWVRQTPGKGLEWIAYINSGGSVKVYADSVKGRFAISRNDSKNSLYLQMNSLRAEDTAVYYCARAGNAFGTFDYWGQGTLVTVSS
VL: DIQMTQSPSSVSASVGDRVTITCRASQDISRWLAWYQQKPGKAPKRLMYAASVLDVGVPSRFSGSGSGTDFTLTISNLQPEDFATYYCQQPISFPLTFGGGTKVDIK
Kd: 0.097 nM
